Measured values reported in the nanobody polyreactivity screen of Harvey et al. (2022).

Test: yeast display, Sf9 membrane polyspecificity reagent, FACS + sequencing; frameworks hold sequencing errors
In short: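 A nanobody's polyreactivity label depends on the gate it was sorted from. Yeast display cells were stained with 10% biotinylated, detergent-solubilized Sf9 membrane reagent for 1 hour at 4 °C, enriched on streptavidin microbeads and sorted by FACS. The low and high (top ~1%) gates were set on anti-HA fluorescence for expression and streptavidin fluorescence for reagent binding.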

| Sequence | polyreactivity (PSR sort gate) |
| --- | --- |
| QVQLVESGGGLVQAGGSLRLSCAASGFTFRKNAMGWYRQAPGKERELVAAISSGSGSTYYADSVKGRFTISRDNAKNTVYLQMNSLKPEDTAVYYCNSEAYYTTGYPTSDVFDRYDYWGKGTQVTVSS | low polyreactivity |
| QVQLVESGGGLVQAGGSLRLSCAASGFTFVWYTMGWYRQAPGKERELVAAISSSGGTTYYADSVKGRFTISRDNAKNTVYLQMNSLKPEDTAVYYCNVAYFYTTPTRGYNYWGQGTQVTVSS | high polyreactivity |
| QVKLVESGGGLVQAGGSLRLRCAASGIIFDYYAMGWYRQAPGKERELVAAISKRGGSTYYADSVKGRFTISRDNAKNTVYLQMNSLKPEDTAVYYCAAVYAREAKRYDYWGQGTQVTVSS | high polyreactivity |
| QVQLVESGGGLVQAGGSLRLSCAASGRIFKDYAMGWYRQAPGKEREFVARISSRGGRTYYADSVKGRFTISRDNAKNTVYLQMNSLKPEDTAVYYCAVTTSPYRPTKFDYWGQGTQVTVSS | high polyreactivity |
| QVQLVESGGGLVQAGGSLRLSCAASGSTFYRYAMGGYRPAPGKEREFVAAISGSGGSTRYADSVKGRFTISRDNAKNTVYLQMNSLKPEDTAVYYCAARSRYGYITFDYWGQGTQVTVSS | high polyreactivity |
| QVQLVESGGGLVQAGGSLRLSCAASGRTFFRNAMGWYRQAPGKERELVAAISSSGGSTYADSVKGRFTISRDNAKNTVYLQMNSLKPEVTAVYYCATRFQYTRTWYSRKYDYWGQGTQVTVSS | high polyreactivity |
| QVHLLESGGGLFQPGGSLRLSCAASGRIFTSYAMGWYRPAPGKESELVAAISWGGGRTYYADSVKGRYTISRDNAKNTVYLQMNSVKPEDTAVYYCAALIADRDSPYDYWGQGTQVTVSS | high polyreactivity |
| QVQLVESGGGLVQAGGSLRLSCAASGSTFYVNAMGWYRQAPGKERELVAAIRSSAGNTTYADSVKGRFTISRDNAKNTVYLQMNSLKPEDTAVYYCAAETFYDYGGYDYWGQGTQVTVSS | low polyreactivity |
| QVHLVESGGGLVQAGGSLRLSCAASGRILGKYSMGWYRQAPGKERELVAAIRLRGGSTYYADSVKGRFTISRDNAKNTVYLQMNSLKPEDTAVYYCAARYWDRSQAYNYWGQGTQVTVSS | high polyreactivity |
| QVQLVESGGGLVQAGGSLRLSCAASGLIFKFYPMGWYRQAPGKERELVASIRGSGDNTYYADSVKGRFTISRDNAKNTVYLQMNSLKPEDTAVYYCNARASYSWHGIRGKYDYWGQGTQVTVSS | high polyreactivity |
| QVQLLESGGGLVQAGGSLRLSSMASASILGDRMSWYRQAPGKEHELVATIYDGGISYYADSMKGRFTISRDNAKNTVYLQMNSLRPEDTAVFFCGASFEGYRFHVYCGQGTQVTVSS | low polyreactivity |
| QVQLVESGGGLVQAGGSLRLSCAATGSTFTSYAMGWYRQAPGKERELVAVISFSGGSTYYADSVKGRFTISRDNAKNTVYLQMNSLKPEDTAVYYCAARIYKRYYWGQGTQVTVSS | high polyreactivity |
| QVQLVESGGGLVQAGGSLRLSCAASGRTFKAYAMGWYRQAPGKERELVAAITYSGGSTYYADSVKGRFTISRDNAKNTVYLQMNSLKPEDTAVYYCAASAQSRSRVKLYYWGQGTQVTVSS | high polyreactivity |
| QVQLVESGGGLVQAGGSLRLSCAASARTFGVYAMGWYRQAPGKERELVAAISKSDGSTYYADSVKGRFTISRDNAKITVYLQMNSLKPEDTAVYYCATVTLHQRDTQDDFWGQGTQVTVSS | low polyreactivity |
| QVQLVESGGGLVQAGGSLRLSCAASGSTFYRYAMGWYRQAPGKERELVAAISWDGGRTYYADSVKGRFTISRDNAKNTVYLQMNSLKPEDTAVYYCNARSSQYLGRYDYWGQGTQVTVSS | high polyreactivity |
| QDQLVESGGGLVQAGGSLRLSCAASGGIFYQYAMGWYRQAPGKERELVATITSGGRTSYADSVKGRFTISRDNAKNTFYLQMNSLNPEDTAVYYCAATTGWYGARYGYWGQGTQVTVSS | high polyreactivity |
| QDQLVEAGGGLVQAGGSLRLSCAASGFTFYPYAMGWYRQAPGKERELVAAISYSGDRTYYADSVKGRFTISRDNAKNTVYLQMNSLKPEDTAVYDCVSAVHPGKYYYWGQGTQVTESS | high polyreactivity |
| QVQLVESGGGLVQAGGSLRLSCAASGRIFGLNTMGWYRQAPGKERELVAAITSSAGSTYYADSVKGRFTISRDNAKNTVYLQMNSLKPEDTAVYYCAARVSYLGSFTSQRYYYWGQGTQVTVSS | high polyreactivity |
| QVQLVESGGGLVQAGGSLRLSCAASGSIFYGNAMGWYRQAPGKEREFVAGISWYGGSTYYADSVKGRFTISRDNAKNTVYLQMNSLKPEDTAVYYGATVADEPRAYSGYEESDYWGQGTQVTVSS | low polyreactivity |
| QVQLVESGGGLVQAGGSLRLSCAASGYIFDPNAMGWYRQAPGKERELVAAISGSGTSTYYADSVKGRFTISRDNAKNTVYLQMNSLKPEDTAVYYCAAAHDAGPVRYYYWGQGTQVTVSS | low polyreactivity |
| QVQLVESGGGLVQAGGSLRLSCAASGFTFWYNDMGWYRQAPGKEREFVAAITTSGGNTYYADSVKGRFTISRDNAKNTVYLQMNSLKPEDTAVYYCAAEEGSSDATGYDYWGQGTQVTVSS | low polyreactivity |
| QVQLVESGGGLVQAGGSLRLICAASGSYAMGWYRQAPGKERELVASIDGPGGSTYYADSVKGRFTISRDNAKNTVYLQMNSLKPEDTAVYYCEDWAPGLYDYWGQGTQVTVSS | low polyreactivity |

| Sequence | polyreactivity (PSR sort gate) |
| --- | --- |
| QVQLVDSGGGLVQAGGSLRLSCAASGYTFGNNARAWYRQAPGKERELVARIRTNGGTTYYADSVKGRFTISRDNAKYTVYLQMNSLKPEDTAVYYCNAYRGYEYDYWGQGTQVTVSS | low polyreactivity |
| QVQHVESGGGLVQAGGSLRLSCAASGLIFTTYAMGWYRQAPGKERELVADINSDGSTYYADSVKGRFTISRDNAKNTVYLQMNSLKPEDTAVYYCAASSYYTITYKLIYWRNYDYWGHGTQVTVSS | low polyreactivity |
| QVQLVESGGGLVQAGGSLRLSCAASGNTFYNVYAMGWYRQATGKERELVAAITARGSTYADSVKGRFTISRDNAKNTVYLQMNSLKPEDNAVYYGATRSSWLYRGLYYNGFNYWGQGTQVTVSS | high polyreactivity |
| QVQLVESGGGLVQAGGSLRLSCAASGGTCWWYAMGWYRQAPGKEREFVAAISQRGTSTYYADSVKGRFTISRDNAKNTVYLQMNSLKPEDTAVYYCAVRAYRWRSTLGLYYWGQGTQVTVSS | high polyreactivity |
| QVQLVESGGGLVQAGGSLRLSCAASGRIFPSYAMGWYRQAPGKERELDATISSGGRTYYADSVKGRFTISRDNAKNTVYLQMNILKPEYTAVYYCNADRTQDRNPYTYATFDYWGQGTQVTVSS | low polyreactivity |
| QVQLVESGGGLDHARGSLRLICPASGRTFAPYAMGWYRQAPGKERELVARITWSGTDTYYADSVKGRFTISRDNAKNTVYLQMNCLKPDDTAVYYCAADARYSRRYYYWGQGTQVTVSS | low polyreactivity |
| QVQLVESGGGLVQAGGSLRLSCAASGRTFQQNAMGWYRQAPGKERELVAAINSRGGRTYYADSVKGRFTISRDYAKNTVYLQMNSLKPEDTAVYYCAARYYWGQGTQVTVSS | high polyreactivity |
| QVQLVESGGGLVQAGGSLRLSCAASGRIYYYYTMGWYRQAPGKERELVAGISRSGDRTYYADSVKGRFTISRDIAKNTVYLQMNSLKPEDTAVYYCATRWSSARMDYWGQGTQVTVSS | high polyreactivity |
| QVQLVESGGGLFHAGGSLRLSCAASGRTFGIYAMGGSRQAPGKERELVAAITWSGDSTYYADSVKGRFTISRDNAKNTVYLQMNRLKPEDTAVYYCAADYVGVTSVRYDYWGQGTQVTVSS | low polyreactivity |
| QVQLVESGGGLVQAGGSLRLSCAASGITFVRYTMGWYRQAPGKEWELVATITLSGGRTYYADSVQGRFTISRDNAKNTVSLQMTSLKPEDTAVYYCAASSRSRWSGYRYDYWGQGTQVTVSS | high polyreactivity |
| QVQLVESGGGLVQEGGSLRLSCAASGRIIPSYAMGWYRQAPGKERELVAAISYSGASTYYADSVKGRFTISRDNAKNTVYLLMNCLKPEDTAVYYCATDHDSVRVLVSSTSDYDYWGQGTQVTVSS | low polyreactivity |
| QVQLVESGGGLVQAGGSLRLSCAASGRIFGPNAMGWYRQAPGKERELVASISYSGGSTYYADSVKGRFTISRDNAKNTVYLQMNSLKPEDTAVYYCAKGGYWRGYNYWGQGTQVTVSS | low polyreactivity |
| QVQLVESGGGLVQAGGSLRLSCAASGLIFVNAMGWYRQAPGKEREFVAAITYSTGSTYYADSVKGRFTISRDNAKNTVYLQMNRLKPEDTAVYYCAKDRSGHGTERDYWGQGTQVTVSS | low polyreactivity |
| QVQLVESGGGLVQAGGSLRLSCAASGLTFKSYAMGWYRQAPGKERELVAAISWRGGRTYYADSVKGRFTISRDNAKNTVYLQMNSLKPEDTAVYYCNARSQQWWLSRYNYWGQGSQVTVSS | high polyreactivity |
| QVQLVESGGGLVQAGGSLRLSCAASGFIFQYYAMGWYRQAPGKERELVAAINWSGGSTYYADSVKGRFTISRDNAKNSVYLQMNSLKPEDTAVYYCAADEYTSGYEYWGQGTQVTVSS | high polyreactivity |
| QVQLVESGGGLVQAGGSLRLTCAASGLIFVAYAMGWYRQAPGKERELVAAISWSGGDTYYADSVKGRFTISRDNAKNTVYLQMNSLKPEDTAVYYCAADYYPYGYDSWGQGTQVTVSS | low polyreactivity |
| QDQLVESGGGLVQAGGSLRLSCAASGFNFMSKGMGWYRQAHGKETEFVAVITSSTGSTSYADSVKGRFTISRDNAKNTVYLQMNSLKPEDTGVFYCAADAYYYYAGGHYYWGQGTQVTVSS | low polyreactivity |
| QVQLVESGGGLVQAGGSLRLTCAASGFIFTYPNAKGWNIQAPGKERELVAAISWRGGGTYYADSVKGRFTISRDNAKNTVYLQMNSLKPEDTAVYYCADYVPAPRRTYNYWGQGTQVTVSS | high polyreactivity |
| QVQLVESGGGLVQAGGSLRLSCAASGYTFESYTMGWYRQAPGKEREFVAVISSSDTSTSYADSVKGRFTISRDNAKNTFYLQMNSLKPVDTAVYYCAAYSSPYYITYYWYNYDYWGQGTQVTVSS | low polyreactivity |
| QDQLVESGGGLVQAGGSLRLSCAASGIIFAKYAMGWSRQAPGNERELVAAINARGGSTYYADSVKGRFTISRDNAMNTVYLQMNSLKPEDTAVYYCAAERRSRFGNGVTYDYWGQGTQVTVSS | high polyreactivity |
| QVQLVESGGGLVQAGGSLRLSCAASGSIVYYAMGWYRQAPGKERELVAAINTSGGSTYYADSVKGRFTISRDNAKNTVYLQMNSLKPEDTAVYYCAAVYVGYITGFKRGYWGQGTQVTVSS | high polyreactivity |
